From the Human Domainome abundance scans (Beltran et al. 2025)
± gives the uncertainty stated by the source.

B1: Far upstream element-binding protein 1, residues 98 to 169; numbered along this chain, Q96AE4 (parent)
chain: RSVMTEEYKVPDGMVGFIIGRGGEQISRIQQESGCKIQIAPDSGGLPERSCMLTGTPESVQSAKRLLDQIVE

Variants of: B1
Assay: abundance fitness (aPCA) (normalised: wild type 0, dead -1); higher = more abundant; growth selection in yeast, the domain comes from the species named
Settings: Homo sapiens

Abundance fitness, by site and new letter:
L67: E -0.54 ± 0.03 | N -0.501 ± 0.064 | K -0.653 ± 0.042 | P -0.484 ± 0.039 | C -0.161 ± 0.034 | D -0.412 ± 0.041 | M -0.107 ± 0.035 | G -0.583 ± 0.026 | R -0.777 ± 0.029 | F -0.121 ± 0.038 | Q -0.575 ± 0.045 | H -0.592 ± 0.06 | I 0.008 ± 0.04
T56: G -0.091 ± 0.024 | D -0.067 ± 0.037 | Q -0.042 ± 0.041 | K -0.027 ± 0.036 | N -0.03 ± 0.044 | Y -0.066 ± 0.056 | R -0.058 ± 0.025 | L -0.062 ± 0.028 | C -0.026 ± 0.037 | S -0.006 ± 0.027 | V -0.04 ± 0.026 | A -0.046 ± 0.029 | W -0.154 ± 0.034 | I -0.079 ± 0.042 | F -0.087 ± 0.045 | E -0.036 ± 0.032
M52: S 0.001 ± 0.029 | P -0.625 ± 0.046 | G -0.137 ± 0.024 | A -0.056 ± 0.03 | N -0.072 ± 0.052 | E -0.053 ± 0.031 | T -0.033 ± 0.037 | I -0.018 ± 0.05 | V 0 ± 0.027 | L 0 ± 0.028 | W -0.011 ± 0.029 | H -0.025 ± 0.058 | C -0.004 ± 0.043 | R -0.017 ± 0.024 | Q -0.032 ± 0.039 | D -0.139 ± 0.039 | K -0.045 ± 0.034 | Y -0.012 ± 0.053
K64: Q -0.104 ± 0.033 | I -0.097 ± 0.04 | W -0.252 ± 0.03 | H -0.136 ± 0.041 | V -0.09 ± 0.026 | T -0.065 ± 0.03 | E -0.15 ± 0.03 | P -0.781 ± 0.041 | G -0.179 ± 0.025 | A -0.078 ± 0.027 | F -0.254 ± 0.043 | C -0.137 ± 0.038 | N -0.274 ± 0.043 | S -0.126 ± 0.026 | D -0.634 ± 0.047 | R -0.015 ± 0.023 | L -0.231 ± 0.026
R65: D -0.043 ± 0.036 | W -0.082 ± 0.028 | P -0.464 ± 0.034 | N -0.008 ± 0.039 | Q -0.02 ± 0.031 | E -0.015 ± 0.031 | S -0.034 ± 0.027 | T -0.019 ± 0.032 | K -0.006 ± 0.034 | C -0.029 ± 0.036 | I -0.051 ± 0.038 | Y -0.053 ± 0.039 | V -0.002 ± 0.026 | F 0.017 ± 0.039 | G -0.027 ± 0.023 | L -0.024 ± 0.026 | H -0.025 ± 0.036
E58: K -0.035 ± 0.034 | S -0.041 ± 0.029 | W -0.125 ± 0.029 | L -0.072 ± 0.027 | T -0.038 ± 0.032 | A -0.051 ± 0.029 | P -0.065 ± 0.034 | D 0.03 ± 0.04 | G -0.05 ± 0.024 | I -0.069 ± 0.043 | Y -0.05 ± 0.043 | V -0.075 ± 0.027 | N -0.107 ± 0.049 | Q 0.001 ± 0.036 | H -0.052 ± 0.044 | C -0.17 ± 0.04 | R -0.08 ± 0.024
L53: S -0.899 ± 0.047 | P -1.03 ± 0.093 | Y -1.67 ± 0.26 | M -0.095 ± 0.035 | W -1.03 ± 0.054 | G -1.1 ± 0.041 | A -0.719 ± 0.039 | F -0.349 ± 0.05 | Q -1.1 ± 0.091 | V -0.132 ± 0.028 | N -1.05 ± 0.11 | I 0.048 ± 0.053 | K -0.835 ± 0.063 | R -1.05 ± 0.043 | D -1 ± 0.092 | T -0.923 ± 0.063 | H -0.99 ± 0.13
S62: E -0.004 ± 0.029 | P -0.727 ± 0.041 | R -0.017 ± 0.023 | F -0.071 ± 0.04 | V 0.012 ± 0.027 | T -0.005 ± 0.029 | H -0.01 ± 0.038 | K 0.005 ± 0.033 | I -0.082 ± 0.053 | G -0.01 ± 0.024 | C 0.025 ± 0.038 | Q -0.019 ± 0.031 | Y -0.066 ± 0.041 | A -0.03 ± 0.026 | W -0.059 ± 0.029 | N -0.005 ± 0.041
S50: M -0.018 ± 0.034 | W -0.174 ± 0.03 | C -0.015 ± 0.033 | Y -0.117 ± 0.038 | G -0.054 ± 0.025 | P -0.043 ± 0.035 | L -0.002 ± 0.028 | V -0.017 ± 0.027 | D -0.023 ± 0.038 | R -0.011 ± 0.023 | T -0.015 ± 0.032 | K -0.019 ± 0.034 | N 0.038 ± 0.046 | Q -0.025 ± 0.033 | I 0.07 ± 0.052 | E -0.06 ± 0.033 | H -0.105 ± 0.044 | F -0.177 ± 0.051 | A -0.048 ± 0.029
G55: V -1.31 ± 0.077 | T -1.32 ± 0.12 | I -1.12 ± 0.14 | S -0.44 ± 0.037 | C -1.24 ± 0.15 | D -0.936 ± 0.074 | F -1.41 ± 0.21 | A -0.534 ± 0.034 | L -1.51 ± 0.12 | N -1.1 ± 0.16 | P -1.13 ± 0.082 | E -1.12 ± 0.069 | K -1.05 ± 0.087 | H -0.721 ± 0.13
R49: K -0.079 ± 0.037 | S -0.086 ± 0.029 | C -0.183 ± 0.041 | V -0.116 ± 0.03 | P -0.144 ± 0.04 | H -0.106 ± 0.054 | E -0.188 ± 0.033 | F -0.248 ± 0.049 | A -0.088 ± 0.031 | W -0.318 ± 0.032 | N -0.085 ± 0.045 | Y -0.072 ± 0.046 | D -0.172 ± 0.045 | G -0.088 ± 0.026 | I -0.133 ± 0.045 | L -0.18 ± 0.03 | Q -0.083 ± 0.038 | T -0.068 ± 0.034
P57: A -0.017 ± 0.028 | K -0.044 ± 0.04 | C -0.111 ± 0.049 | Y -0.049 ± 0.054 | I -0.088 ± 0.05 | L -0.048 ± 0.029 | H -0.12 ± 0.058 | F 0.057 ± 0.051 | E -0.008 ± 0.031 | N 0.001 ± 0.063 | Q 0.033 ± 0.034 | S -0.027 ± 0.03 | W -0.104 ± 0.034 | R -0.021 ± 0.024 | G -0.025 ± 0.026 | V -0.086 ± 0.029 | D -0.097 ± 0.044
E48: D -0.059 ± 0.041 | I -0.057 ± 0.044 | T -0.028 ± 0.036 | Q -0.085 ± 0.041 | K -0.084 ± 0.042 | M -0.092 ± 0.036 | A -0.041 ± 0.03 | V -0.035 ± 0.028 | Y 0.02 ± 0.046 | S -0.057 ± 0.03 | P -0.088 ± 0.038 | F -0.015 ± 0.036 | L 0.001 ± 0.029 | H -0.114 ± 0.054 | G -0.045 ± 0.026 | N -0.019 ± 0.05 | W 0.004 ± 0.031 | C -0.119 ± 0.038
V60: Y -0.781 ± 0.07 | D -0.768 ± 0.06 | W -0.999 ± 0.056 | Q -0.174 ± 0.042 | S -0.57 ± 0.037 | E -0.855 ± 0.044 | T -0.13 ± 0.036 | K -0.223 ± 0.036 | I 0.025 ± 0.045 | P -0.871 ± 0.075 | H -0.525 ± 0.059 | F -0.558 ± 0.069 | A -0.307 ± 0.03 | N -0.109 ± 0.047 | L -0.009 ± 0.03 | R -0.006 ± 0.025
A63: N -0.91 ± 0.078 | V -0.246 ± 0.027 | I -0.328 ± 0.043 | G -0.069 ± 0.023 | P -0.805 ± 0.046 | Y -1.05 ± 0.11 | C 0.024 ± 0.036 | L -0.41 ± 0.028 | T -0.303 ± 0.032 | K -1.04 ± 0.069 | D -0.633 ± 0.05 | F -0.941 ± 0.093 | H -1.09 ± 0.089 | W -1.31 ± 0.079 | E -0.815 ± 0.047 | S -0.261 ± 0.029
S59: F -0.428 ± 0.047 | Q -0.017 ± 0.034 | K -0.046 ± 0.033 | T -0.058 ± 0.033 | L -0.401 ± 0.029 | I -0.252 ± 0.051 | E 0.012 ± 0.03 | R -0.064 ± 0.024 | Y -0.376 ± 0.05 | G -0.046 ± 0.023 | C -0.071 ± 0.037 | W -0.754 ± 0.042 | M -0.089 ± 0.034 | P -0.555 ± 0.037 | D -0.053 ± 0.036 | V -0.116 ± 0.028 | H -0.063 ± 0.038
Q61: V -0.035 ± 0.027 | I -0.029 ± 0.046 | F -0.031 ± 0.045 | H -0.051 ± 0.041 | W -0.058 ± 0.03 | M -0.007 ± 0.034 | D 0.003 ± 0.04 | N -0.021 ± 0.043 | A -0.003 ± 0.028 | T -0.002 ± 0.033 | S -0.009 ± 0.027 | E 0.052 ± 0.03 | R -0.002 ± 0.023 | G 0.001 ± 0.024 | L -0.003 ± 0.027 | Y -0.049 ± 0.04 | C -0.003 ± 0.034 | P -0.463 ± 0.038
T54: V -0.05 ± 0.028 | K 0.01 ± 0.036 | W -0.185 ± 0.031 | M 0 ± 0.038 | P -1.23 ± 0.083 | C -0.085 ± 0.045 | H -0.056 ± 0.049 | D -0.191 ± 0.045 | G -0.282 ± 0.028 | F -0.105 ± 0.048 | Y -0.046 ± 0.056 | Q -0.067 ± 0.043 | L -0.087 ± 0.029 | E -0.028 ± 0.033 | S -0.027 ± 0.029 | N -0.069 ± 0.05 | A -0.081 ± 0.03 | I -0.054 ± 0.043
L66: R -0.053 ± 0.024 | S -0.029 ± 0.026 | P -0.684 ± 0.04 | W -0.123 ± 0.027 | I -0.045 ± 0.039 | M -0.006 ± 0.033 | V -0.11 ± 0.026 | E -0.017 ± 0.028 | C 0 ± 0.034 | H -0.05 ± 0.039 | A -0.076 ± 0.029 | Y -0.079 ± 0.04 | D -0.127 ± 0.035 | N -0.108 ± 0.039 | F -0.087 ± 0.04
C51: E -1 ± 0.059 | L -0.019 ± 0.03 | Q -0.818 ± 0.068 | T -0.093 ± 0.033 | G -0.417 ± 0.024 | D -0.956 ± 0.082 | F 0.049 ± 0.053 | K -1.12 ± 0.087 | H -0.718 ± 0.091 | V 0.006 ± 0.027 | S -0.284 ± 0.029 | P -0.597 ± 0.042 | M 0.017 ± 0.036 | W -0.108 ± 0.03 | Y -0.116 ± 0.046 | R -0.984 ± 0.037 | A -0.06 ± 0.028
